# Experiment: soluble fraction after stress (log2 fold change); higher = more stays soluble; pooled small domains, quantitative proteomics
# Settings: stress: 75 degC
# 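Further: 20 min heating vs room temperature control held 20 min.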
row,Sequence,soluble fraction (log2)
1,HMTEFWTGPITTVTKANFADWTLDTNQDRITANVWLTRADSKGLFNITPGKETAFDIVDYLSPLDTEWA,-0.209
2,HMTEGDRLARRILRLVRNKPNGYPEVELMKATVLDWNHFQRSISSLEMAGILERRDPGDGTPPVWVEKR,-1.53
3,HMTEKIEWYKEVLDLEPNSKIFFPLAKMLEKEGELEEARRVLAEGVSRHEEFLEARLFYISVLSRL,-0.301
4,HMTENLELLATGSLWTEPDGSGKIISYLIPGLRVKKLETNGIFYKIQLQNGLIGWADQSLFTIAEPK,-1.62
5,HMTENQKNIDLIKIVSLLVHAAKIDENYTNKEKELIINFINNFSKENKQNIKSSEILEEAEKYEK,0.132
6,HMTEPKRIVDHWQPSDDVYDILRMSHIDLDFARSLLPEFIVYWKDSSQTHTSWNSKFLQHAKYHWAKRHQL,-2.27
7,HMTEPLTKREKEVLLLLPRGLTAKAMASELFLTEATIKSHLAAIFRKFKVVNRTQAIAIAVESKILT,-2.41
8,HMTESLVITVDPALHGLRLDRGLADALPDRSRSEVQRWIKEGRVQLHGAPAKPSLKLAAGDIVTIALPEE,0.442
9,HMTESSTYFEKIGTEISQFKSIPKNIDVIIIEKLIYSGIIKKVDNEENSRVYYILTRKGRYFWKRYVLS,0.16
10,HMTETFVLNLRQPIAAAPVLPGYRVARTDEQTLEVEVSKDQNLNEIFTALSALGVEVLSMRNK,-0.0438
11,HMTFAEADAQYEVIKQQYLAGALDEEQFDEQLHRLMVLDDGGLWWAKSRENGSWHYYDPDREDWIAATP,-0.394
12,HMTFEAKKGYINADMSVNVRETASTSATVIITLNPNTEVKVVGEENDFYKIEYKEYKGYVAKRLISDSQVQ,-0.747
13,HMTFPTEAKLTGDKVFVRSGPSTQSQRLTNLAINSVVTVLAREMGDMQYPWYKVRYSDGEGWVYGQYVEAI,-1.08
14,HMTFTQFAESHGVIIKSLKASDKIQRGPTVAHPKSDNGAWLWDGNRGGVMAWDGDGQWYWFK,-1.73
15,HMTGEERRMNTADLYRRRGMELFKRKIYVDAIDSLKVSLEYEDNATTRYYLDLATKRYQDLKIS,-2.13
16,HMTGETWAERSRALAAAGLIVMGQEAKNKIEDLPSLSPLIEAAAASETRLLTGQIIDELLAFV,-0.589
17,HMTGIELLSHREHQVYDLLTQGRTVTEIGAQLNLAPNTVSTYRARILEKTGTKNDVELALYAQRH,-0.22
18,HMTGKASEIAALLEQRIAAGDYPAGSKLPSERELAASFHVSRNTIRDAIALLAARKIVSTKWGAGTVVLG,-0.967
19,HMTGLRETIPAALDGERLDRVVALLGDVSRSRASAALEAERVTLDGEVVTLRSHRVREGEELTVAGFE,0.417
20,HMTGLSAQILAKLRDNHGVLPVSDKSDPAVISNLFGVSKGNFKKAIGGLYKEGQIVIHADRIEL,-0.0972
21,HMTGLSFEEKDLLGNALKLLDETERRIVILHATSGLKHREIAKQLDIPLPTVLSKYTRAIKKLKKHME,-1.14
22,HMTGPSYTTRRVEAAETMMEFLRTFPQAAPFIGDLYVKAQDWPLGEEIGDRLKKMLPPQLQE,-0.698
23,HMTGQVASMVERLAQRLKDQPQDAEGWAMLARSYSVLGRHPEALQAYEKALALRKDDANLLADYADSLA,-0.23
24,HMTGRHEEAIQELKRTLELHPQKPKIFLLLGVSYLRLNNLKKAVEAFNTVLLLQPKNQKALTMLKEIKKR,-0.178
25,HMTGSLLVEVQGRPDADRLLGQALVDAGLTARPAGGALIEVEVRDETTPDVVRDLTVDLGLGLVRMQERH,-0.548
26,HMTGSLRIKHKTYYMLFSWKDESGQWRQKSESTGIPERGGKRKAQEMLNTRLEELQLQSTASL,-3.87

row,Sequence,soluble fraction (log2)
1,HMTGSLRVTSSPSGAEIYVDEIYRGYTPLTIGSLSTGRHEVRLHLSGYQDYTRTVEIESGSQSSFSVTLT,-1.46
2,HMTGSTSVAQVSTPSGSLNLRAYASTSARVLLQIPEYAFVTVYNRGATWSYVSYNGVSGYVMSVYLSFGG,-2.31
3,HMTGTVKVNSLNVYKSASLDSEVKDTLVLNTKVTIAENGQVTDGIYVWGRLQSGEGYVQMNNLTL,-0.418
4,HMTHRRLELTLDAIDERLDRALTAAVPELSRMQWQRLIREGLVTVDGERARPSYRIQGGETLVALVPEV,-0.448
5,HMTIAEGLIFRFTEPFKPIDQYTYYIMGDNKVEQIPNFKTLEVMLAQRNQNYLSVRVIEKSQLDDILKEF,-4.16
6,HMTIDETKKQQVKDGLKDIPGVTVEFVGDKAVLKGAVTDANRVKIMQIVMAAKVLSDASGLTSK,-0.422
7,HMTIDTSNDLLNQITEATSKGPISILELKDQLNVNASDIEGELRTLIDQHLVFLKDGMLQVIPFD,0.797
8,HMTIEEMAIENINFSTQLLYKAMKYNGVNTVGDLLEKARSKKDLLTMAYIGNKEAEEIIEKLSELGITI,-1.63
9,HMTIFGWQQDETGKWYRNADGTFYENGWKEIDGAQYYFDENGYVTTGWLELDGKDYYFDEEGKYDSTKVR,-0.445
10,HMTIGPALAIGGNKVEMTQQGKIQVTNPQGKIKTLSQDEFKKQLVKNADKIEAGQDFEFKKD,0.275
11,HMTIKLFPNPSTDFIRVSELSAKENYKIYTILGSEIKRGSVSNNETIDIRNLNSGVYLLKFDNGTTKKIVK,-1
12,HMTIKTAFPAEDLAKPDNFKSLLYYFGLLTIRGTKWGSTLLAIPNLTVREQLYSYLVEAYRSADL,0.331
13,HMTILKEGMSGPEVERLQDALKRHGFDPGRVDGQFGPGTEAAILAFQKSEGLRADGVAGPKTQQALGLE,0.121
14,HMTIRLKELRKQKGNTQAEVAKILGTNQSQYGKYENERTQLSLDNAKILSDYFGVSVPYLLGLDDNP,-0.361
15,HMTISDTAYQAFLEQLGVGMVVEHKRFGEGVITGMPKGKIRITFEEGTKSFQARALAESGMLK,-0.875
16,HMTISIAEQIFEQLEREILSGAYPRGELLTETKLSEKLGVSRTPIREALRRLDQEHIIKMTTKGAFVLGI,-2.4
17,HMTITIGNSDGGYMKMGADGFEVRFSGSDGGNHYAKMYYNNDGWARLTLGSYGEEKARIDSDGMIQTR,0.108
18,HMTKEAIAQKLRIARQESGLTQKDVSAKIGRPQQTIASWEVGRSQPDADTLYSLLLLYKVSPNTFFEYD,-1.18
19,HMTKEEIVVNWLPRYTKRNLEDFGEYILLTNFNKYVEIFAEKFNVPILGRDANMISASAEGITIIN,-0.409
20,HMTKEEREKREKYEKLMKKAEELTAAKNHREVINVLGQAKAYATAAQLKEIEEKIKAATSEMNK,0.326
21,HMTKEGVNISITADGVQLSTESPNRVSIFNVNGTKVWEGIAPANVSLQKGVYILQTANGNTKFV,0.597
22,HMTKLLITNYERNVLINSYLLKNTPELDDIRRLLVHNKHISENDVSTEMARRIKKHKADWLRVT,-3.4
23,HMTKLTPLEVNLYAKKLANDPEFGSKHIEPGESFSQAEERLRVQLSQQEYVQKYSKYLKKLKASA,-0.198
24,HMTKPAEVRIDELMNAAQTLFLAKGVEATTISEIIASVGVAKGTFYHYFESKQHIVEALKKRYID,-1.85
25,HMTKQNVVPLMYRMIDTLEQFIKADVPFNIETRLARVERLRETMVSSSVTTSEKFRQVLEAYTIETD,-1.05
26,HMTKSEWLRESREHLGLSQTDLRNLLNTALNRSYDKSRISRWENSKENIPAEVVKQIESLIATR,-0.0559

row,Sequence,soluble fraction (log2)
1,HMTKTRTEILEYLKQNWSVTVSASDIKKHLEEKEIKANTTTIYRYLDKLLAEHVIIKYADAGSERAVYQYS,-2.23
2,HMTKVIEFLVSDEEHGVRADKAFVSHNQKLSRSYFKKLILNGNLYINNKVNLDPSYKLIKGSTVRIILPE,-2.58
3,HMTKVKIDRLFSIVQMLVNRKSVTAKELADYFNVSVRTIYRDIEILSANGIPIYATQGKGGGISILEN,-1.74
4,HMTKYEGLSLDLIIDGVVITHNLKLAKLDMNWLLDRLKENGWDNPKDIFYAYIDTAGNFRFQPKLKASRTR,0.473
5,HMTKYREVLRMSAGGFSQRVIASTLSISRNTVASTLKRAREQNLDWEAVEQQRLSEKDIANLLFP,-3.22
6,HMTLAEEFNNLNGKVITRETLESLLVKAEKEQNSTISNRIRKVLQAYTADTFLIELQHTESA,-0.0241
7,HMTLALKQGSTGSTVKQVQQKLKNWGYYSGAVDGIFGSGTRKAVVLFQKRNKLTADGIVGSKTLEALGIYV,-2.36
8,HMTLDDSIALGRSLLDKGLMDFGTNLANLAEDKLRDFLSQQRYENLDDLFADIARGNRLPMFTAQQLLS,-0.0666
9,HMTLDVALSKEIKYMLKEEHYLPGDKLPSERKLAELFHVQRLTVRGALNLLLQDKTIISKPRSGYYVAPKR,-2.88
10,HMTLFDESGYTARELEIIREVANGLSNKEIADKLFLSEGTVKNYITGILAKENLSHRTALAVYYLTGRK,-1.83
11,HMTLHEAMEKLFRQVGRPMTTKEIAEKLNENKWYQKADGSPLTPYQIYGRAKNYPALFHREGSIIYLKGS,-0.547
12,HMTLKTISLTEAIKNTNEGNYSKLVLDGNELTITEQGKETPSLKTYTEPGTSLKEQGFDLSKVEFEAREQS,-0.0223
13,HMTLNQEELMGKTEAILFAGGEPVSLDRIAQVLGVRTPVIDSIVSALQEKYNTPTSGIQLMRL,-0.267
14,HMTLPELTDRELQILQLLSVGNSSQKIAKQLNISTHTVSTHRKQLLRKLGAQNGADLIRRAQKLGIL,-1.78
15,HMTLQEFYARVGGDYNATLSRLPSEALVKKFILKYPGDPSFAQLKDALAAQDWELAFRASHTLKGVAQN,-1.9
16,HMTLSAPMPGTVLKIHVKEGQRVRKGQTLVVLEAMKMEHRIQAPKAGEVTNLHFSEGDRVDMGEILVEIG,-2.34
17,HMTLSDDEFEIIKSLIIDTLKEEALTINALTKKINHKEAKTIQVIRFLLDNGLVAENNLMKLFVI,-1.43
18,HMTLTIEDQLRRLRARLGRGRAFLFSDVLVNPHDRTEIAVTLLALLELIKRREAQASQSYLFGPIEVAAA,-2.01
19,HMTLTLEQAAAIKNSEGEQYGKIESERLAAMSVQIDKAIKSNGHDPNKKADLERKLDAIGIILNARAAG,0.222
20,HMTLVKRSAMVTAWSEFAGGRVNSKLIALQNGKAGDWIELENPQSGRKLRGRVQSDGSVRLGS,-1.07
21,HMTLYITDQMRKILDYVATNQEIDEKAVMDLLSIQRTRAYLIAKKMTDIGLLQVQGRGKTKTYRLAARS,-2.08
22,HMTLYQIGDKVVHPMHGAGVIDSVVQRKVSGQVQEFYLLKLSVGNMVVMVPTDNTGEIGMRP,-2.52
23,HMTMEQAEFLSRQFNLLSQRLNDPSIEWQDIADLRSEYTGEDEHRDTIRKGAKLFYEYLEAGWIKN,-0.76
24,HMTMKNPNGYGSVINLGKGRRRPWAARVTTGLVYDEKKDKLIQRYKYIGYADTRKEAHQILAEYNAGLPI,-1.76
25,HMTMMTFGEKLQNARKGAGLSQEQLAEKLSVSRSAVAKWENDNGMPDIDNLKAIAQLLDVSIDYLLEN,0.812

# From the domain aggregation screens of Martell et al. (2025)
